Measurements published in publication PMC11406361, “Several orphan solute carriers functionally identified as organic cation transporters: Substrates specificity compared with known cation transporters” (The Journal of Biological Chemistry, 2024).

Columns and labels:
Experiment in all cases: cells, lysate or membranes
C[N+](C)(C)CCO = settings: other: SLC35E1, HEK293, net uptake over empty vector cells; pH 7.4
CC(N)Cc1ccccc1 = settings: pH 7.4
Clc1cccc(Cl)c1N=C1NCCN1 = settings: other: SLC38A10, HEK293, net uptake over empty vector cells; pH 7.4
CN1CCC[C@H]1c1cccnc1 = settings: other: SLC38A10, HEK293, net uptake over empty vector cells; pH 7.4

Substance	Km (C[N+](C)(C)CCO)	Vmax (C[N+](C)(C)CCO) [µmol/min/mg]	Vmax/Km (C[N+](C)(C)CCO) [µL/min/mg]	Km (CC(N)Cc1ccccc1)	Km (Clc1cccc(Cl)c1N=C1NCCN1)	Vmax (Clc1cccc(Cl)c1N=C1NCCN1) [µmol/min/mg]	Vmax/Km (Clc1cccc(Cl)c1N=C1NCCN1) [µL/min/mg]	Km (CN1CCC[C@H]1c1cccnc1)
SLC35E1 (Homo sapiens)	91.6 (±39.8) μM	8.71e-05	0.95					
SLC38A10 (Homo sapiens)				120 (±44.9) μM	162 (±141) μM	0.000427	2.64	62.0 (±35.6) μM
